The results in this text go back to article PMC10681739, “High-throughput data and modeling reveal insights into the mechanisms of cooperative DNA-binding by transcription factor proteins”.

B1: Table S3 C row 67 (dsDNA)
DNA 1: AAAAAAAAAAAAAAAGTTCCGGCCGGGCTGCGCCTC
DNA 2: GAGGCGCAGCCCGGCCGGAACTTTTTTTTTTTTTTT
B2: Table S3 C row 56 (dsDNA)
DNA 1: CGCTCAGAGCTACGGCGGAAATGCCGCTCTTTTAAC
DNA 2: GTTAAAAGAGCGGCATTTCCGCCGTAGCTCTGAGCG
B3: Table S3 C row 95 (dsDNA)
DNA 1: CGCAGGGTCACGTGACATCCTGCCTCGCCCCGCCCA
DNA 2: TGGGCGGGGCGAGGCAGGATGTCACGTGACCCTGCG
B4: Table S3 C row 99 (dsDNA)
DNA 1: CGCTCCAGGGCCTCCCGGATGGCCTAGTCGGGCCCG
DNA 2: CGGGCCCGACTAGGCCATCCGGGAGGCCCTGGAGCG
B5: Table S3 C row 109 (dsDNA)
DNA 1: GCAGCACGCAGCAACCGGAAGTCAATGGACGAAGAC
DNA 2: GTCTTCGTCCATTGACTTCCGGTTGCTGCGTGCTGC
B6: Table S3 C row 152 (dsDNA)
DNA 1: TTTCCCCGACCCCGCCGGAAGACCAGGCCGGCGCGG
DNA 2: CCGCGCCGGCCTGGTCTTCCGGCGGGGTCGGGGAAA
B7: Table S3 C row 16 (dsDNA)
DNA 1: GCTAGATGAAGCCCCTTTCCTGTTGCTGCCTACATT
DNA 2: AATGTAGGCAGCAACAGGAAAGGGGCTTCATCTAGC
B8: Table S3 C row 59 (dsDNA)
DNA 1: TCTTACGGGCGGGGCCGGAAGAGGGAGTCGCGCTGC
DNA 2: GCAGCGCGACTCCCTCTTCCGGCCCCGCCCGTAAGA
B9: Table S3 C row 2 (dsDNA)
DNA 1: TGGACCTAGGGCAGACGGAAGTTTTGGGAGGGCCGG
DNA 2: CCGGCCCTCCCAAAACTTCCGTCTGCCCTAGGTCCA
B10: Table S3 C row 139 (dsDNA)
DNA 1: TAAATGGAAAGCATACATCCTGTTTTTTTGCTGTAG
DNA 2: CTACAGCAAAAAAACAGGATGTATGCTTTCCATTTA
B11: Table S3 C row 17 (dsDNA)
DNA 1: CGCGGGTCATGTGACCGGAAGGGCTCCTCACGGACG
DNA 2: CGTCCGTGAGGAGCCCTTCCGGTCACATGACCCGCG
B12: Table S3 C row 196 (dsDNA)
DNA 1: GGGGTTCAGTGCCTCTTTCCGTTGGAGAGAACCTCT
DNA 2: AGAGGTTCTCTCCAACGGAAAGAGGCACTGAACCCC
B13: Table S3 C row 85 (dsDNA)
DNA 1: CAGTCTGGCCCTCCACTTCCTGTTTTTATAAATGAA
DNA 2: TTCATTTATAAAAACAGGAAGTGGAGGGCCAGACTG
B14: Table S3 C row 7 (dsDNA)
DNA 1: ACCCCGACGCAGCCTGGGAAGTGTAGTCCTCTCTGC
DNA 2: GCAGAGAGGACTACACTTCCCAGGCTGCGTCGGGGT
B15: Table S3 C row 92 (dsDNA)
DNA 1: TCCCTAGTTTCTGCCCGGAAGATGGAGCCGCCATCT
DNA 2: AGATGGCGGCTCCATCTTCCGGGCAGAAACTAGGGA
B16: Table S3 C row 168 (dsDNA)
DNA 1: CAGAAGTCCCGACCCCATCCTGCCACGCCTCAGCGT
DNA 2: ACGCTGAGGCGTGGCAGGATGGGGTCGGGACTTCTG
B17: Table S3 C row 55 (dsDNA)
DNA 1: GGGTTCATGTTTAGCAGGAAGTTGAAATGACTCACC
DNA 2: GGTGAGTCATTTCAACTTCCTGCTAAACATGAACCC
B18: Table S3 C row 38 (dsDNA)
DNA 1: AGTGAAACATCAGAGCTTCCTGTTACATCACTCTGA
DNA 2: TCAGAGTGATGTAACAGGAAGCTCTGATGTTTCACT
B19: Table S3 C row 63 (dsDNA)
DNA 1: GCACTGAGGCTGACCCGGAAGTTTAAATTACGCTCC
DNA 2: GGAGCGTAATTTAAACTTCCGGGTCAGCCTCAGTGC
B20: Table S3 C row 42 (dsDNA)
DNA 1: CTTTGGCAGCAAGAACATCCGTTCTCTGTTCTTTGC
DNA 2: GCAAAGAACAGAGAACGGATGTTCTTGCTGCCAAAG
B21: Table S3 C row 155 (dsDNA)
DNA 1: TCCAGGCACTATTTTCGGAAGCAGAGACACAGTGCC
DNA 2: GGCACTGTGTCTCTGCTTCCGAAAATAGTGCCTGGA
B22: Table S3 C row 18 (dsDNA)
DNA 1: GCTGTGATTGCCTCACTTCCTGTGTCATGTGACGCT
DNA 2: AGCGTCACATGACACAGGAAGTGAGGCAATCACAGC
B23: Table S3 C row 28 (dsDNA)
DNA 1: GTTCCTAGTCCGCTCCGGAAATGCAACTGCGTACGG
DNA 2: CCGTACGCAGTTGCATTTCCGGAGCGGACTAGGAAC
B24: Table S3 C row 64 (dsDNA)
DNA 1: CTCCATCACTGTCGGAGGAAGTGGCATGCAGAGTGG
DNA 2: CCACTCTGCATGCCACTTCCTCCGACAGTGATGGAG
B25: Table S3 C row 30 (dsDNA)
DNA 1: ACCGACCTGCCTCGCCGGAACTCCTCGCGCATCGCC
DNA 2: GGCGATGCGCGAGGAGTTCCGGCGAGGCAGGTCGGT
B26: Table S3 C row 91 (dsDNA)
DNA 1: CACATACTACTACAACTTCCGGCAGGCTCCGCGCCC
DNA 2: GGGCGCGGAGCCTGCCGGAAGTTGTAGTAGTATGTG
B27: Table S3 C row 199 (dsDNA)
DNA 1: TATCTGAGGAGTGGCAGGAAGTCTGGGGTGACTTTT
DNA 2: AAAAGTCACCCCAGACTTCCTGCCACTCCTCAGATA
B28: Table S3 C row 40 (dsDNA)
DNA 1: GCACCTGTATTGCCGTTTCCGGTTCGCCTTCGGAGC
DNA 2: GCTCCGAAGGCGAACCGGAAACGGCAATACAGGTGC
B29: Table S3 C row 45 (dsDNA)
DNA 1: CCGCTGGGGCAGGAGTTTCCGGCGGACTCGGCTAGG
DNA 2: CCTAGCCGAGTCCGCCGGAAACTCCTGCCCCAGCGG
B30: Table S3 C row 134 (dsDNA)
DNA 1: GGGCAGAAGCACACAAGGAAGTGTTTCTGGGACAGA
DNA 2: TCTGTCCCAGAAACACTTCCTTGTGTGCTTCTGCCC
B31: Table S3 C row 175 (dsDNA)
DNA 1: CTGCGCGGCCCACCCCGGATGTCAGCCCCACGCGCC
DNA 2: GGCGCGTGGGGCTGACATCCGGGGTGGGCCGCGCAG
B32: Table S3 C row 51 (dsDNA)
DNA 1: CACAGAGACACCAACAGGAAGAGACCAGAGAGCCAA
DNA 2: TTGGCTCTCTGGTCTCTTCCTGTTGGTGTCTCTGTG
B33: Table S3 C row 19 (dsDNA)
DNA 1: TCCAGACCTCCCCGTCTTCCGGCTGCCCTGAACGTC
DNA 2: GACGTTCAGGGCAGCCGGAAGACGGGGAGGTCTGGA
B34: Table S3 C row 14 (dsDNA)
DNA 1: TCCTGCCGACGTGTTCTTCCGGTGGCGGAGCGGCGG
DNA 2: CCGCCGCTCCGCCACCGGAAGAACACGTCGGCAGGA
B35: Table S3 C row 34 (dsDNA)
DNA 1: TTACGGCAAGCCTCACTTCCGGTCTGAACATTACGG
DNA 2: CCGTAATGTTCAGACCGGAAGTGAGGCTTGCCGTAA
B36: Table S3 C row 78 (dsDNA)
DNA 1: ATTCCAATGGCAGGCAGGAAATCTTGTAGTAGGTGA
DNA 2: TCACCTACTACAAGATTTCCTGCCTGCCATTGGAAT
B37: Table S3 C row 80 (dsDNA)
DNA 1: CAAAAGGGCTGCCAGTTTCCGCCCCTTCTAGCGAGC
DNA 2: GCTCGCTAGAAGGGGCGGAAACTGGCAGCCCTTTTG
B38: Table S3 C row 171 (dsDNA)
DNA 1: AGGAGACAAGCGCCACTTCCGGCAGCGAAGTCACTT
DNA 2: AAGTGACTTCGCTGCCGGAAGTGGCGCTTGTCTCCT
B39: Table S3 C row 4 (dsDNA)
DNA 1: CTCTCAACCCAGCCGCTTCCTGGTTGTTCGTCGCAA
DNA 2: TTGCGACGAACAACCAGGAAGCGGCTGGGTTGAGAG
B40: Table S3 C row 189 (dsDNA)
DNA 1: TCGCTGATGGCGTCATTTCCGTGAGTCATCTGAGGG
DNA 2: CCCTCAGATGACTCACGGAAATGACGCCATCAGCGA
B41: Table S3 C row 159 (dsDNA)
DNA 1: GTAAATACACTCATGTTTCCGCTCTCAGCCGTCAGT
DNA 2: ACTGACGGCTGAGAGCGGAAACATGAGTGTATTTAC
B42: Table S3 C row 195 (dsDNA)
DNA 1: TCGCGCTGGACGAAGCGGAAGAAGATGGCGCTCACC
DNA 2: GGTGAGCGCCATCTTCTTCCGCTTCGTCCAGCGCGA

Chain of RUNX1 (Q01196 whole entry): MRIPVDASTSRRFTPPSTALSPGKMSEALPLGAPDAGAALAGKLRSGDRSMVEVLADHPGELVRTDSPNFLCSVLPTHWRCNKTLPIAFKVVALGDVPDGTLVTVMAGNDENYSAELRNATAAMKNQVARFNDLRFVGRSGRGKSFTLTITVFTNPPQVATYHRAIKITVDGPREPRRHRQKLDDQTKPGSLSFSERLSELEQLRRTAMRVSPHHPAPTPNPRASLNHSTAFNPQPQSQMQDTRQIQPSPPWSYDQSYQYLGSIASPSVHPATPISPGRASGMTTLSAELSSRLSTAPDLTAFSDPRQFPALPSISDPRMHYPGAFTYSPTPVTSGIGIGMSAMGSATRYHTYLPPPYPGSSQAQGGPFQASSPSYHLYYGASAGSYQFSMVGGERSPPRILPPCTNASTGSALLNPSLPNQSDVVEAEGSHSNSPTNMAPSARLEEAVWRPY

This data set concerns the target RUNX1 (Homo sapiens, UniProt Q01196). Put plainly: gcPBM; 2 nM RUNX1. The following applies: tags: N-terminal GST (pDEST15), kept (PMC6008103); label: surface-attached array probe.
For B1, the binding signal was 810 PBM fluorescence, median of replicate spots.
Consider B2, for which the binding signal is 786 PBM fluorescence, median of replicate spots.
For B3, the binding signal was 783 PBM fluorescence, median of replicate spots.
The result for B4 reads 786 PBM fluorescence, median of replicate spots; that for B5, 792 PBM fluorescence, median of replicate spots.
Regarding B6, the binding signal is 787 PBM fluorescence, median of replicate spots.
Then B7, with 818 PBM fluorescence, median of replicate spots; and B8, with 793 PBM fluorescence, median of replicate spots.
The result for B9 reads 810 PBM fluorescence, median of replicate spots; that for B10, 802 PBM fluorescence, median of replicate spots; that for B11, 798 PBM fluorescence, median of replicate spots.
The result for B12 reads 810 PBM fluorescence, median of replicate spots; that for B13, 810 PBM fluorescence, median of replicate spots; that for B14, 822 PBM fluorescence, median of replicate spots.
As to B15, the binding signal was 788 PBM fluorescence, median of replicate spots.
The result for B16 reads 810 PBM fluorescence, median of replicate spots; that for B17, 803 PBM fluorescence, median of replicate spots.
Then B18, with 789 PBM fluorescence, median of replicate spots.
B19: the binding signal was 812 PBM fluorescence, median of replicate spots.
Take B20: the binding signal is 821 PBM fluorescence, median of replicate spots.
The result for B21 reads 791 PBM fluorescence, median of replicate spots.
The result for B22 reads 805 PBM fluorescence, median of replicate spots.
For B23, the binding signal is 793 PBM fluorescence, median of replicate spots.
Then B24, with 818 PBM fluorescence, median of replicate spots; and B25, with 816 PBM fluorescence, median of replicate spots; and B26, with 795 PBM fluorescence, median of replicate spots.
The result for B27 reads 815 PBM fluorescence, median of replicate spots; that for B28, 799 PBM fluorescence, median of replicate spots; that for B29, 802 PBM fluorescence, median of replicate spots.
Then B30, with 813 PBM fluorescence, median of replicate spots; and B31, with 823 PBM fluorescence, median of replicate spots.
Consider B32, for which the binding signal was 807 PBM fluorescence, median of replicate spots.
As to B33, the binding signal was 812 PBM fluorescence, median of replicate spots.
Then B34, with 791 PBM fluorescence, median of replicate spots; and B35, with 808 PBM fluorescence, median of replicate spots; and B36, with 802 PBM fluorescence, median of replicate spots.
The result for B37 reads 794 PBM fluorescence, median of replicate spots; that for B38, 814 PBM fluorescence, median of replicate spots; that for B39, 782 PBM fluorescence, median of replicate spots.
For the molecule B40, the binding signal is 823 PBM fluorescence, median of replicate spots.
Then B41, with 801 PBM fluorescence, median of replicate spots.
The result for B42 reads 794 PBM fluorescence, median of replicate spots.
